The source of these data is paper PMC5932034 (2018).

B1: fused FliS−FliC^C construct (FliC^C fused to the C terminus of FliS) [not stated] / cytoplasmic domain of Salmonella enterica serovar Typhimurium FlhA (FlhA^C) [Salmonella enterica serovar Typhimurium ST313] (parent complex)
chain 1: MYTASGIKAYAQVSVESAVMSASPHQLIEMLFDGANSALVRARLFLEQGDVVAKGEALSKAINIIDNGLKAGLDQEKGGEIATNLSELYDYMIRRLLQANLRNDAQAIEEVERLLSNIAEAWKQISPKASFQESRGTASGAGGSEGGGSEGGTSGATEDSDYATEVSNMSRAQILQQAGTSVLAQANQVPQNVLSLLR
chain 2: SLGMEVGYRLIPMVDFQQDGELLGRIRSIRKKFAQDMGFLPPVVHIRDNMDLQPARYRILMKGVEIGSGDAYPGRWLAINPGTAAGTLPGEKTVDPAFGLDAIWIESALKEQAQIQGFTVVEASTVVATHLNHLIGQFSAELFGRQEAQQLLDRVSQEMPKLTEDLVPGVVTLTTLHKVLQNLLAEKVPIRDMRTILETLAEHAPLQSDPHELTAVVRVALGRAITQQWFPGNEEVQVIGLDTALERLLLQALQGGGGLEPGLADRLLAQTQEALSRQEMLGAPPVLLVNHALRPLLSRFLRRSLPQLVVLSNLELSDNRHIRMTATIGGK
B2: fused FliT−FliD^C construct (FliD^C fused to the N terminus of FliT) [Salmonella enterica serovar Typhimurium ST313] / cytoplasmic domain of Salmonella enterica serovar Typhimurium FlhA (FlhA^C) [Salmonella enterica serovar Typhimurium … (parent complex)
chain 1: GAHMSIDETVARYKAQFTQLDTMMSKLNNTSSYLTQQFTAMNKSGGSGGSGSGGSGGMTSTVEFINRWQRIALLSQSLLELAQRGEWDLLLQQEVSYLQSIETVMEKQTPPGITRSIQDMVAGYIKQTLDNEQLLKGLLQQRLDELSSLIGQSTRQKSLNNAYGRLSGMLLVPDAPGAS
chain 2: B1 chain 2

One test covers variants of B1. The experiment in a line: ITC; parent: 1; read off a plot. On the technique in general: Isothermal titration calorimetry measures the heat released or taken up as one component is titrated into another.
Regarding chain 2 SLGMEVGYRLIPMVDFQQDGELLGRIRSIRKKFAQDMGFLPPVVHIRDNMDLQPARYRILMKGVEIGSGDAYPGRWLAINPGTAAGTLPGEKTVDPAFGLDAIWIESALKEQAQIQGFTVKEASTVVATHLNHLIGQFSAELFGRQEAQQLLDRVSQEMPKLTEDLVPGVVTLTTLHKVLQNLLAEKVPIRDMRTILETLAEHAPLQSDPHELTAVVRVALGRAITQQWFPGNEEVQVIGLDTALERLLLQALQGGGGLEPGLADRLLAQTQEALSRQEMLGAPPVLLVNHALRPLLSRFLRRSLPQLVVLSNLELSDNRHIRMTATIGGK [chain 2 V121K], the ratio to parent was around 12.

With chain 2 SLGMEVGYRLIPMVDFQQDGELLGRIRSIRKKFAQDMGFLPPVVHIRDNMDLQPARYRILMKGVEIGSGDAYPGRWLAANPGTAAGTLPGEKTVDPAFGLDAIWIESALKEQAQIQGFTVVEASTVVATHLNHLIGQFSAELFGRQEAQQLLDRVSQEMPKLTEDLVPGVVTLTTLHKVLQNLLAEKVPIRDMRTILETLAEHAPLQSDPHELTAVVRVALGRAITQQWFPGNEEVQVIGLDTALERLLLQALQGGGGLEPGLADRLLAQTQEALSRQEMLGAPPVLLVNHALRPLLSRFLRRSLPQLVVLSNLELSDNRHIRMTATIGGK [chain 2 I79A], the ratio to parent is around 10.

For the variant chain 2 SLGMEVGYRLIPMVDFQQDGELLGRIRSIRKKFAQDMGFLPPVVHIRDNMDLQPARYRILMKGVEIGSGDAYPGRWLAINPGTAAGTLPGEKTVDPAFGADAIWIESALKEQAQIQGFTVVEASTVVATHLNHLIGQFSAELFGRQEAQQLLDRVSQEMPKLTEDLVPGVVTLTTLHKVLQNLLAEKVPIRDMRTILETLAEHAPLQSDPHELTAVVRVALGRAITQQWFPGNEEVQVIGLDTALERLLLQALQGGGGLEPGLADRLLAQTQEALSRQEMLGAPPVLLVNHALRPLLSRFLRRSLPQLVVLSNLELSDNRHIRMTATIGGK [chain 2 L100A], the ratio to parent is around 4.

Turning to chain 2 SLGMEVGYRLIPMVDFQQDGELLGRIRSIRKKFAQDMGFLPPVVHIRDNMDLQPARYRILMKGVEIGSGDAYPGRWLAINPGTAAGTLPGEKTVDPAFGLDAIWIESALKEQAQIQGFTVVEASTGVATHLNHLIGQFSAELFGRQEAQQLLDRVSQEMPKLTEDLVPGVVTLTTLHKVLQNLLAEKVPIRDMRTILETLAEHAPLQSDPHELTAVVRVALGRAITQQWFPGNEEVQVIGLDTALERLLLQALQGGGGLEPGLADRLLAQTQEALSRQEMLGAPPVLLVNHALRPLLSRFLRRSLPQLVVLSNLELSDNRHIRMTATIGGK [chain 2 V126G], the ratio to parent was around 15.

Turning to chain 2 SLGMEVGYRLIPMVDFQQDGELLGRIRSIRKKFAQDMGFLPPVVHIRDNMDLQPARYRILMKGVEIGSGDAYPGRWLAINPGTAAGTLPGEKTVVPAFGLDAIWIESALKEQAQIQGFTVVEASTVVATHLNHLIGQFSAELFGRQEAQQLLDRVSQEMPKLTEDLVPGVVTLTTLHKVLQNLLAEKVPIRDMRTILETLAEHAPLQSDPHELTAVVRVALGRAITQQWFPGNEEVQVIGLDTALERLLLQALQGGGGLEPGLADRLLAQTQEALSRQEMLGAPPVLLVNHALRPLLSRFLRRSLPQLVVLSNLELSDNRHIRMTATIGGK [chain 2 D95V], the ratio to parent is around 15.

In a further test the parent is B1. The experiment in a line: ITC; parent: 1; read off a plot. The source holds these as a separate data set.
chain 1 MYTASGIKAYAQGSVESAVMSASPHQLIEMLFDGANSALVRARLFLEQGDVVAKGEALSKAINIIDNGLKAGLDQEKGGEIATNLSELYDYMIRRLLQANLRNDAQAIEEVERLLSNIAEAWKQISPKASFQESRGTASGAGGSEGGGSEGGTSGATEDSDYATEVSNMSRAQILQQAGTSVLAQANQVPQNVLSLLR [chain 1 V13G]: the ratio to parent was around 6.5.

In another test the parent is B2. The experiment in a line: ITC; parent: 1; read off a plot.
As to chain 2 SLGMEVGYRLIPMVDFQQDGELLGRIRSIRKKFAQDMGFLPPVVHIRDNMDLQPARYRILMKGVEIGSGDAYPGRWLAANPGTAAGTLPGEKTVDPAFGLDAIWIESALKEQAQIQGFTVVEASTVVATHLNHLIGQFSAELFGRQEAQQLLDRVSQEMPKLTEDLVPGVVTLTTLHKVLQNLLAEKVPIRDMRTILETLAEHAPLQSDPHELTAVVRVALGRAITQQWFPGNEEVQVIGLDTALERLLLQALQGGGGLEPGLADRLLAQTQEALSRQEMLGAPPVLLVNHALRPLLSRFLRRSLPQLVVLSNLELSDNRHIRMTATIGGK [chain 2 I79A], the ratio to parent is around 6.

As to chain 2 SLGMEVGYRLIPMVDFQQDGELLGRIRSIRKKFAQDMGFLPPVVHIRDNMDLQPARYRILMKGVEIGSGDAYPGRWLAINPGTAAGTLPGEKTVDPAFGLDAIWIESALKEQAQIQGFTVKEASTVVATHLNHLIGQFSAELFGRQEAQQLLDRVSQEMPKLTEDLVPGVVTLTTLHKVLQNLLAEKVPIRDMRTILETLAEHAPLQSDPHELTAVVRVALGRAITQQWFPGNEEVQVIGLDTALERLLLQALQGGGGLEPGLADRLLAQTQEALSRQEMLGAPPVLLVNHALRPLLSRFLRRSLPQLVVLSNLELSDNRHIRMTATIGGK [chain 2 V121K], the ratio to parent is around 7.

As to chain 2 SLGMEVGYRLIPMVDFQQDGELLGRIRSIRKKFAQDMGFLPPVVHIRDNMDLQPARYRILMKGVEIGSGDAYPGRWLAINPGTAAGTLPGEKTVDPAFGLDAIWIESALKEQAQIQGFTVVEASTGVATHLNHLIGQFSAELFGRQEAQQLLDRVSQEMPKLTEDLVPGVVTLTTLHKVLQNLLAEKVPIRDMRTILETLAEHAPLQSDPHELTAVVRVALGRAITQQWFPGNEEVQVIGLDTALERLLLQALQGGGGLEPGLADRLLAQTQEALSRQEMLGAPPVLLVNHALRPLLSRFLRRSLPQLVVLSNLELSDNRHIRMTATIGGK [chain 2 V126G], the ratio to parent is around 4.

Turning to chain 2 SLGMEVGYRLIPMVDFQQDGELLGRIRSIRKKFAQDMGFLPPVVHIRDNMDLQPARYRILMKGVEIGSGDAYPGRWLAINPGTAAGTLPGEKTVDPAFGLDAIWIESALKEQAQIQGFTVVEASTVVATHLNHLIGQFSAELFGRQEAQQLLDRVSQEMPKLTEDLVPGVVTLTTLHKVLQNLLAEKVPIRDMRTILETLAEHAPLQSDPHELTAVVRVALGRAITQQWFPGNEEVQVIGLDTALERLLLQALQGGGGLEPGLADRLLAQTQEALSRQKMLGAPPVLLVNHALRPLLSRFLRRSLPQLVVLSNLELSDNRHIRMTATIGGK [chain 2 E279K], the ratio to parent is around 5.

For the variant chain 2 SLGMEVGYRLIPMVDFQQDGELLGRIRSIRKKFAQDMGFLPPVVHIRDNMDLQPARYRILMKGVEIGSGDAYPGRWLAINPGTAAGTLPGEKTVDPAFGLDAIWIESALKEQAQIQGFTVVEASTVVATHLNHLIGQFSAELFGRQEAQQLLDRVSQEMPKLTEDLVPGVVTLTTLHKVLQNLLAEKVPIRDMRTILETLAEHAPLQSDPHELTAVVRVALGRAITQQWFPGNEEVQVIGLDTALERLLLQALQGGGGLEPGLADRLLAQTQEALSRQKGGGAPPVLLVNHALRPLLSRFLRRSLPQLVVLSNLELSDNRHIRMTATIGGK [chain 2 E279K, chain 2 M280G, chain 2 L281G], the ratio to parent is around 10.

In the case of chain 2 SLGMEVGYRLIPMVDFQQDGELLGRIRSIRKKFAQDMGFLPPVVHIRDNMDLQPARYRILMKGVEIGSGDAYPGRWLAINPGTAAGTLPGEKTVDPAFGLDAIWIESALKEQAQIQGFTVVEASTVVAMHLNHLIGQFSAELFGRQEAQQLLDRVSQEMPKLTEDLVPGVVTLTTLHKVLQNLLAEKVPIRDMRTILETLAEHAPLQSDPHELTAVVRVALGRAITQQWFPGNEEVQVIGLDTALERLLLQALQGGGGLEPGLADRLLAQTQEALSRQEMLGAPPVLLVNHALRPLLSRFLRRSLPQLVVLSNLELSDNRHIRMTATIGGK [chain 2 T129M], the ratio to parent was around 3.3.

For chain 2 SLGMEVGYRLIPMVDFQQDGELLGRIRSIRKKFAQDMGFLPPVVHIRDNMDLQPARYRILMKGVEIGSGDAYPGRWLAINPGTAAGTLPGEKTVDPAAGLDAIWIESALKEQAQIQGFTVVEASTVVATHLNHLIGQFSAELFGRQEAQQLLDRVSQEMPKLTEDLVPGVVTLTTLHKVLQNLLAEKVPIRDMRTILETLAEHAPLQSDPHELTAVVRVALGRAITQQWFPGNEEVQVIGLDTALERLLLQALQGGGGLEPGLADRLLAQTQEALSRQEMLGAPPVLLVNHALRPLLSRFLRRSLPQLVVLSNLELSDNRHIRMTATIGGK [chain 2 F98A], the ratio to parent was around 9.
